Our source for the decomposition-inhibition rate (type V collagen degradation, SDS-PAGE/western blot densitometry) values is patent publication US20070010430A1.

In assay [1] the target is MMP-2. Description: cell-based or functional assay.
In assay [2] the target is MMP-9. Description: cell-based or functional assay.

For “shark cartilage extract obtained in Section (1) of Example 1 (water extract of blue shark cartilage, ethanol precipitate)”, the decomposition-inhibition rate (type V collagen degradation, SDS-PAGE/western blot densitometry) in assay [1] and in assay [2] was 90% throughout.
